Holding throughout (assay): purified protein
What all share (conditions): 0.1 M Tris-HCl pH 8, 10 mM MgCl2, 0.22 mM NADP(H), 25 C

Substrate in data set [1]: CC(=O)[C@](C)(O)C(=O)O
Type of data set: biochemical, Streptomyces pristinaespiralis.

Substrate in data set [2]: CC(C)(O)C(=O)C(=O)O
In kind it is biochemical, Streptomyces pristinaespiralis.

Substrate in data set [3]: CC[C@](O)(C(C)=O)C(=O)O
Type of data set: biochemical, Streptomyces griseus.

Substrate in data set [4]: CC(=O)[C@](C)(O)C(=O)O
Type of data set: biochemical, Streptomyces griseus.

Substrate in data set [5]: CC(=O)[C@](C)(O)C(=O)O
Type of data set: biochemical, Streptomyces coelicolor.

Substrate in data set [6]: CC(C)(O)C(=O)C(=O)O
Type of data set: biochemical, Streptomyces coelicolor.

Substrate in data set [7]: CC(=O)[C@](C)(O)C(=O)O
In kind it is biochemical, Streptomyces lividans.

Substrate in data set [8]: CC(C)(O)C(=O)C(=O)O
In kind it is biochemical, Streptomyces lividans.

Substrate in data set [9]: CC(=O)[C@](C)(O)C(=O)O
Type of data set: biochemical, Streptomyces ambofaciens.

Substrate in data set [10]: CC(C)(O)C(=O)C(=O)O
Type of data set: biochemical, Streptomyces ambofaciens.

Substrate in data set [11]: CC(=O)[C@](C)(O)C(=O)O
In kind it is biochemical, Streptomyces viridifaciens.

Substrate in data set [12]: CC(C)(O)C(=O)C(=O)O
In kind it is biochemical, Streptomyces viridifaciens.

Substrate in data set [13]: CC(C)(O)C(=O)C(=O)O
In kind it is biochemical, Corynebacterium glutamicum.

Substrate in data set [14]: CC[C@](O)(C(C)=O)C(=O)O
Type of data set: biochemical, Streptomyces avermitilis.

Substrate in data set [15]: CC(=O)[C@](C)(O)C(=O)O
In kind it is biochemical, Streptomyces avermitilis.

Substrate in data set [16]: CC(C)(O)C(=O)C(=O)O
In kind it is biochemical, Escherichia coli.

Drawing on paper PMC4353338, “Molecular annotation of ketol-acid reductoisomerases from Streptomyces reveals a novel amino acid biosynthesis interlock mediated by enzyme promiscuity” (Microbial Biotechnology, 2014), this text covers Km and kcat for ten proteins.

B1: Spr (Streptomyces pristinaespiralis ATCC 25486) (protein)
chain: MAELFYDDDADLSIIQNRKVAVIGYGSQGHAHALSLRDSGVDVRVGLHEGSKSKAKAEEQGLRVVTPAEAAAEADVIMILIPDPIQAQVYEESVKGNLKDGDALFFAHGFNVRFGFIKAPAGVDVALVAPKGPGHLVRRQYEEGRGVPAIAAVEQDATGNAFALALSYAKAIGGTRAGVIKTTFTEETETDLFGEQAVLCGGASALVKAGFETLTEAGYQPEIAYFECLHELKLIVDLMYEGGLEKMRWSVSETAEWGDYITGPRIITDQTKAEMKKVLAEIQDGTFAKNWMDEYHGGLKKYDEYKTQDSEHLLETTGKELRKLMSWVDNDEA
notes: pET28a, expressed in E. coli BL21 Star (DE3), Ni-NTA purified (His-tagged)
Usually Km stands for the concentration of substrate that gives half-maximal velocity. The kcat is the maximal rate divided by the concentration of active sites. Turning to B1, in data set [1], the Michaelis constant (Km) is 9000 ± 700 µM and the kcat is 3.6 ± 0.3 s⁻¹. In addition, in data set [2], the Km was determined as 8600 ± 900 µM and the catalytic constant (kcat) was determined as 5.2 ± 0.6 s⁻¹.

B2: Sgr (Streptomyces griseus subsp. griseus NBRC 13350) (protein)
chain: MAELFYDDDADLSIIQGRKVAVLGYGSQGHAHALSLRDSGVDVRVGLHEGSKSKAKAEEQGLRVVTPSEAAAEADVIMILVPDPIQAQVYEESVKDNLKDGDALFFGHGLNIRFGFIKPPAGVDVCMVAPKGPGHLVRRQYEEGRGVPCIVAVEQDASGKGLELALSYAKGIGGTRAGVIKTTFTEETETDLFGEQAVLCGGTAALVKAGFETLTEAGYQPEIAYFECLHELKLIVDLMYEGGLEKMRWSISETAEWGDYVTGPRIITDATKAEMKKVLAEIQDGTFAKNWMAEYHNGLPKYNEYKKADSDHLLETTGRELRKLMSWVNDEEA
notes: as for B1
In the case of B2, in [3], the Km worked out at 2500 ± 300 µM and the catalytic constant (kcat) is 0.44 ± 0.03 s⁻¹. In addition, in data set [4], the Michaelis constant (Km) was 1200 ± 700 µM and the kcat came to 0.42 ± 0.04 s⁻¹.

B3: Sco1 (Streptomyces coelicolor A3(2)) (protein)
chain: MAELFYDADADLSIIQGRKVAVIGYGSQGHAHALSLRDSGVDVRVGLHEGSKSKAKAEEQGLRVVPVAEAAAEADVIMILVPDPIQAEVYEKDIKDNLKDGDALFFGHGLNIRYGFIKPPAGVDVCMVAPKGPGHLVRRQYEEGRGVPCIAAVEQDATGNAFALALSYAKGIGGTRAGVIKTTFTEETETDLFGEQAVLCGGTAALVKAGFETLTEAGYQPEIAYFECLHELKLIVDLMYEGGLEKMRWSISETAEWGDYVTGPRIITDATKAEMKKVLAEIQDGTFAKNWMDEYHGGLKKYNEYKKQDSEHLLETTGKELRKLMSWVDEEA
notes: as for B1
Consider B3, for which, in data set [5], the Km is 1600 ± 200 µM and the turnover number (kcat) was 1.1 ± 0.2 s⁻¹. Also, in [6], the Michaelis constant (Km) came to 3000 ± 200 µM and the catalytic constant (kcat) was 2.2 ± 0.15 s⁻¹.

B4: Sli1 (Streptomyces lividans TK24) (protein)
chain: MAELFYDADADLSIIQGRKVAVIGYGSQGHAHALSLRDSGVDVRVGLHEGSKSKAKAEEQGLRVVPVAEAAAEADVIMILVPDPIQAEVYEKDIKDNLKDGDALFFGHGLNIRYGFIKPPAGVDVCMVAPKGPGHLVRRQYEEGRGVPCIAAVEQDATGNAFALALSYAKGIGGTRAGVIKTTFTEETETDLFGEQAVLCGGTAALVKAGFETLTEAGYQPEIAYFECLHELKLIVDLMYEGGLEKMRWSISETAEWGDYVTGPRIITDATKAEMKKVLAEIQDGTFAKNWMDEYHGGLKKYNEYKKQDSEHLLETTGKELRKLMSWVDEEA
notes: as for B1
Take B4: in data set [7], the Michaelis-Menten constant (Km) is 1200 ± 70 µM and the kcat was determined as 0.7 ± 0.59 s⁻¹. In addition, in data set [8], the Michaelis constant (Km) worked out at 4000 ± 500 µM and the catalytic constant (kcat) worked out at 2.8 ± 0.3 s⁻¹.

B5: Sco2 (Streptomyces coelicolor A3(2)) (protein)
chain: MAELFYDADADLSIIQGRKVAVIGYGSQGHAHALSLRDSGVDVRVGLHEGSKSKAKAEEQGLRVVPVAEAAAEADVIMILVPDPIQAEVYEKDIKDNLKDGDALFFGHGLNIRYGFVKPPAGVDVCMVAPKGPGHLVRRQYEEGRGVPCLVAVEQDATGNAFALALSYAKGIGGTRAGVIRTTFTEETETDLFGEQAVLAGGVTALVKAGFETLTEAGYQPEIAYFECLHELKLIVDLMYEGGLEKMRWSISETAEWGDYVTGPRIITDVTKAEMRKVLAEIQDGTFAKNWMDEYHGGLKKYNEYKKQDSEHLLETTGKELRKLMSWVDEEA
notes: as for B1
For B5, the Michaelis-Menten constant (Km) turned out to be 12000 ± 800 µM in data set [5] and 10000 ± 110 µM in [6]. The kcat in [5] stood at 0.24 ± 0.01 s⁻¹; in [6] it was 0.3 ± 0.04 s⁻¹.

B6: Sam (Streptomyces ambofaciens) (protein)
chain: MAELFYDADADLSIIQGRKVAVIGYGSQGHAHALSLRDSGVDVRVGLHEGSKSKAKAEEQGLRVVSPSEAAAEADVIMILVPDPIQAQVYEEHIKDNLKDGDALFFGHGLNIRFGFIKPPAGVDVCMVAPKGPGHLVRRQYEEGRGVPCIAAVEQDASGNAFALALSYAKGIGGTRAGVIKTTFTEETETDLFGEQAVLCGGTAALVKAGFETLTEAGYQPEIAYFECLHELKLIVDLMYEGGLEKMRWSISETAEWGDYVTGPRIITDATKAEMKKVLAEIQDGTFAKNWMDEYHGGLKKYNEYKQQDSEHLLETTGKQLRKLMSWVDEEA
notes: as for B1
B6: in [9], the Km was 2000 ± 150 µM and the turnover number (kcat) was 0.63 ± 0.5 s⁻¹. For the same protein, in data set [10], the Km was 4000 ± 300 µM and the catalytic constant (kcat) was found to be 0.8 ± 0.1 s⁻¹.

B7: Svi2 (Streptomyces viridifaciens) (protein)
chain: MAELFYDADADLSIIQGRKVAVIGYGSQGHAHALSLRDSGVDVRVGLHEGSKSKAKAEEQGLRVVTPAEAAAEADVIMILVPDPIQAQVYEESVKDNLKDGDALFFGHGFNIRFGFIKPPAGVDVCMVAPKGPGHLVRRQYEEGRGVPCIAAVEQDASGNAFALALSYAKGIGGTRAGVIKTTFTEETETDLFGEQAVLCGGTSALVKAGFETLVEAGYQPEIAYFECLHELKLIVDLMYEGGLEKMRWSVSETAEWGDYVTGPRIITDATKAEMKKVLAEIQDGTFAKNWMDEYHGGLKKYDDYKEQDSEHLLETTGKQLRKLMSWVNEETM
notes: commercially synthesized gene; pET28a, expressed in E. coli BL21 Star (DE3), Ni-NTA purified (His-tagged)
For the protein B7, in [11], the Km came out at 1800 ± 900 µM and the kcat was 2 ± 0.07 s⁻¹. In data set [12], the Km came to 5000 ± 4800 µM and the kcat worked out at 2.5 ± 0.3 s⁻¹.

B8: Cgl (Corynebacterium glutamicum ATCC 13032) (protein)
chain: MAIELLYDADADLSLIQGRKVAIVGYGSQGHAHSQNLRDSGVEVVIGLREGSKSAEKAKEAGFEVKTTAEAAAWADVIMLLAPDTSQAEIFTNDIEPNLNAGDALLFGHGLNIHFDLIKPADDIIVGMVAPKGPGHLVRRQFVDGKGVPCLIAVDQDPTGTAQALTLSYAAAIGGARAGVIPTTFEAETVTDLFGEQAVLCGGTEELVKVGFEVLTEAGYEPEMAYFEVLHELKLIVDLMFEGGISNMNYSVSDTAEFGGYLSGPRVIDADTKSRMKDILTDIQDGTFTKRLIANVENGNTELEGLRASYNNHPIEETGAKLRDLMSWVKVDARAETA
notes: as for B1
Regarding B8, in [13], the Km was determined as 2300 ± 250 µM and the kcat was found to be 0.9 ± 0.08 s⁻¹.

B9: Sav (Streptomyces avermitilis MA-4680 = NBRC 14893) (protein)
chain: MAELFYDADADLSIIQGRKVAVIGYGSQGHAHALSLRDSGVDVRVGLHEGSKSKAKAEEQGLRVVTPSEAAAEADVIMILVPDPIQAQVYEESIKDNLKDGDALFFGHGLNIRFGFIKPPAGVDVCMVAPKGPGHLVRRQYEEGRGVPCIAAVEQDATGNGFALALSYAKGIGGTRAGVIKTTFTEETETDLFGEQAVLCGGTAALVKAGFETLTEAGYQPEIAYFECLHELKLIVDLMYEGGLEKMRWSISETAEWGDYVTGPRIITDATKAEMKKVLAEIQDGTFAQAWMDEYHGGLKKYNEYKTQDENHLLETTGKELRKLMSWVNDEEA
notes: as for B1
Take B9: in data set [14], the Michaelis constant (Km) came out at 2600 ± 300 µM and the kcat worked out at 0.4 ± 0.04 s⁻¹. For the same protein, in [15], the Michaelis-Menten constant (Km) was 800 ± 90 µM and the kcat was 0.24 ± 0.2 s⁻¹.

B10: Eco (Escherichia coli K-12) (protein)
chain: ANYFNTLNLRQQLAQLGKCRFMGRDEFADGASYLQGKKVVIVGCGAQGLNQGLNMRDSGLDISYALRKEAIAEKRASWRKATENGFKVGTYEELIPQADLVINLTPDKQHSDVVRTVQPLMKDGAALGYSHGFNIVEVGEQIRKDITVVMVAPKCPGTEVREEYKRGFGVPTLIAVHPENDPKGEGMAIAKAWAAATGGHRAGVLESSFVAEVKSDLMGEQTILCGMLQAGSLLCFDKLVEEGTDPAYAEKLIQFGWETITEALKQGGITLMMDRLSNPAKLRAYALSEQLKEIMAPLFQKHMDDIISGEFSSGMMADWANDDKKLLTWREETGKTAFETAPQYEGKIGEQEYFDKGVLMIAMVKAGVELAFETMVDSGIIEESAYYESLHELPLIANTIARKRLYEMNVVISDTAEYGNYLFSYACVPLLKPFMAELQPGDLGKAIPEGAVDNGQLRDVNEAIRSHAIEQVGKKLRGYMTDMKRIAVAG
notes: as for B1
In the case of B10, in [16], the Km was found to be 260 ± 30 µM and the kcat came to 3.1 ± 0.25 s⁻¹.
